Data set [1] addresses NPH-II (DExH RNA helicase) (Vaccinia virus) (UniProt P12927). The data set can be described thus: EMSA.
For data set [2], the target named is U1A (N-terminal RNP domain, residues 1-117) (UniProt P09012). In words: EMSA. Background: In EMSA bound probe runs differently from free probe, usually more slowly.
Data set [3] deals with RNA substrate containing the U1A binding site from the 3′-untranslated region (UTR) of U1A mRNA. The data set can be described thus: U1A dissociation (off-rate) from RNA substrate, gel-shift with U1A trap. As for the experimental part:
(§1) FIG. 3. Active displacement of U1A by NPH-II. Dissociation experiments were conducted with 1 nM RNA substrate and 10 nM U1A in a buffer of 40 mM Tris/HCl (pH 8.0), 4 mM MgCl2 at 23° C. (final volume, 40 μL)- Reactions were performed as described in FIG. 2, except that they were initiated by addition of ATP (3.5 mM final concentration) and U1A trap (200 nM final concentration (16)), as indicated. Aliquots (6 μL) were withdrawn at 0, 1, 4, 8, 12, and 20 minutes, mixed with 2 μL of 100 mM EDTA and 2.5 μM NPH-II trap (which serves to capture dissociated NPH-II (16)) in 30% glycerol. Each aliquot was then loaded immediately on a 8% native polyacrylamide gel, which was run at 4° C. at 10V/cm. Bands were visualized by PhosphorImager. U1A-bound and free RNA as well as unwound and duplex RNA species are indicated by the cartoons at left (D: bound U1A dimer, M: bound U1A monomer, F: U1A free duplex substrate, U: unwound substrate). A. Release of U1A upon addition of ATP (initiated by adding ATP together with U1A trap). B. Release of U1A upon addition of NPH-II without ATP (initiated by adding only U1A trap). C. Release of U1A in the presence of ATP and NPH-II (initiated by adding ATP together with U1A trap) D. Trapping control: U1A trap is added together with RNA substrate to assess trapping efficiency. Aliquots were removed and treated as described above. E-H. Same reactions as above, but with blunt-end control duplex.
The off-rate for U1A was measured by saturating the substrate with U1A and, after complex formation, adding a large excess of RNA that contains another high-affinity U1A binding site (15). This prevented U1A from re-binding the substrate once it detached and enabled us to monitor the rate of U1A release by gel-shift electrophoresis (FIG. 3).

Data set [4] shares this test system. Conditions: previously shown; cited from earlier work.
Data set [5] relates to DNA. Conditions: cited from earlier work.
For data set [6], the target named is U1A (N-terminal RNP domain, residues 1-117) (UniProt P09012 P09012:1-117). In words: competition; used at 200 nM to trap dissociated U1A. Conditions: chain copies: 2 (stated, dimer; monomer also seen); hairpin. The method, then:
as §1, with “MgCl₂” for “MgCl2”, “E-H. Same reactions as above, but with blunt-end control duplex.” left out

In turn, “36 bp duplex substrate LS36 with 3' overhang” showed an activity in data set [1] (unwinding rate constant 3.5±0.2 independent of duplex length, Mg2+, 3.5 mM ATP) of 3.5 min⁻¹.
As usually defined, the koff is the rate constant with which the complex falls apart. Regarding “blunt-end U1A binding site control duplex”, the koff in data set [2] (off-rate similar to overhang substrate, not increased by NPH-II plus ATP) was determined as 0.000167 s⁻¹.
With “U1A 3'UTR binding site helicase substrate with 24-nt 3' overhang (AN22U-3')”, the activity in data set [1] (unwinding rate constant without U1A, 3.5 mM ATP, 4 mM MgCl2, pH 8.0, room temperature, with U1A k1 3.52 min-1) worked out at 3.5 min⁻¹. This molecule displayed a koff in data set [2] (40 mM Tris pH 8.0, 4 mM MgCl2, 23 C, U1A trap, no NPH-II, high affinity binding at 10 nM U1A) of 0.000167 s⁻¹.
The molecule “83 bp duplex substrate LS83 with 3' overhang” registered an activity in data set [1] (unwinding rate constant 3.5±0.2 independent of duplex length, lower amplitude with trap RNA, Mg2+, 3.5 mM ATP) of 3.5 min⁻¹.
Consider “U1A: RNA-binding protein with N-terminal RNP domain, constituent of the spliceosomal machinery”, for which, in data set [3] (gel shift, 1 nM RNA, 10 nM U1A), the “U1A binding to substrate and control RNA” value is listed as “high affinity”. The “off-rate koff of U1A” value in data set [3] (without NPH-II (and ATP)) is on record as ~10^−2 min^−1. Also, the “U1A dissociates from the substrate” value in data set [3] (without NPH-II, within 20 minutes) is “roughly 15%”. Further, the “affinity of extended two-piece substrate for U1A binding” value in data set [4] is listed as “subnanomolar affinity”.
Molecule “multi-piece substrates (nicked top strand)” gave an activity in data set [1] (both pieces displaced, 3.3±0.5, Mg2+, trap RNA, 3'-to-5' directionality) of 3.3 min⁻¹.

B1: UvrD DNA helicase: DNA helicase cited for comparison of unwinding step size (Ali and Lohmann, 1997) (protein, UniProt P03018 1-720, looked up)
DNA helicase II: MDVSYLLDSLNDKQREAVAAPRSNLLVLAGAGSGKTRVLVHRIAWLMSVENCSPYSIMAVTFTNKAAAEMRHRIGQLMGTSQGGMWVGTFHGLAHRLLRAHHMDANLPQDFQILDSEDQLRLLKRLIKAMNLDEKQWPPRQAMWYINSQKDEGLRPHHIQSYGNPVEQTWQKVYQAYQEACDRAGLVDFAELLLRAHELWLNKPHILQHYRERFTNILVDEFQDTNNIQYAWIRLLAGDTGKVMIVGDDDQSIYGWRGAQVENIQRFLNDFPGAETIRLEQNYRSTSNILSAANALIENNNGRLGKKLWTDGADGEPISLYCAFNELDEARFVVNRIKTWQDNGGALAECAILYRSNAQSRVLEEALLQASMPYRIYGGMRFFERQEIKDALSYLRLIANRNDDAAFERVVNTPTRGIGDRTLDVVRQTSRDRQLTLWQACRELLQEKALAGRAASALQRFMELIDALAQETADMPLHVQTDRVIKDSGLRTMYEQEKGEKGQTRIENLEELVTATRQFSYNEEDEDLMPLQAFLSHAALEAGEGQADTWQDAVQLMTLHSAKGLEFPQVFIVGMEEGMFPSQMSLDEGGRLEEERRLAYVGVTRAMQKLTLTYAETRRLYGKEVYHRPSRFIGELPEECVEEVRLRATVSRPVSHQRMGTPMVENDSGYKLGQRVRHAKFGEGTIVNMEGSGEHSRLQVAFQGQGIKWLVAAYARLESV
Consider B1, for which the unwinding step size in data set [5] was 4-5 bp.
Consider GGAGAACCAUUGCACUCCGGUUCUUC (ssRNA) [U1A trap (U1 snRNA hairpin)], for which the binding result in data set [6] is given as “binds”.

Values taken from patent US20030224375A1, “Assays for evaluating the function of rna helicases” (priority 2002, published 2003).
